± gives the standard deviation of the averaged measurements.
Experiments:
Saccharomyces cerevisiae [1] = assay: protein stability index of tFT-peptide fusion (C-terminal peptide) (PSI (0-1 scale)); higher = more stable (slower turnover); conditions: genetic background: wild type; temperature: 30 C
Saccharomyces cerevisiae [2] = assay: as above
Procedure: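 MPS profiling in S. cerevisiae of the tFT-X12 degron library: putative degron peptides plus stable controls, 12 aa, fused to the C-terminus of a sfGFP-mCherry timer. Cells are FACS-sorted into 8 mCherry/sfGFP bins and deep-sequenced. PSI runs from 0 (unstable) to 1 (stable). Backgrounds are wild type, das1Δ and doa10Δ at 30 °C, and wild type, das1Δ, cdc34-1 and cdc53-1 at 37 °C; 2-3 technical replicates each.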

[3] = genetic background: cdc34-1, temperature: 37 C
[4] = genetic background: cdc53-1, temperature: 37 C
[5] = genetic background: das1 deletion, temperature: 30 C
[6] = genetic background: das1 deletion, temperature: 37 C
[7] = genetic background: doa10 deletion, temperature: 30 C
[8] = genetic background: wild type, temperature: 30 C
[9] = genetic background: wild type, temperature: 37 C
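Also: PSI is a weighted mean of sequencing reads over stability bins, variants kept only with over 10 reads, mCherry proximal and sfGFP distal, peptide attached via GGGS linker.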

Sequence	protein stability index (Saccharomyces cerevisiae [1])	protein stability index (Saccharomyces cerevisiae [2]; [3])	protein stability index (Saccharomyces cerevisiae [2]; [4])	protein stability index (Saccharomyces cerevisiae [2]; [5])	protein stability index (Saccharomyces cerevisiae [2]; [6])	protein stability index (Saccharomyces cerevisiae [2]; [7])	protein stability index (Saccharomyces cerevisiae [2]; [8])	protein stability index (Saccharomyces cerevisiae [2]; [9])
LCFTSVFTLFIC	0.101 ± 0.024	0.288 ± 0.028	0.469 ± 0.026	0.382 ± 0.026	0.511 ± 0.006	0.0848 ± 0.017	0.0664 ± 0.0089	0.0756 ± 0.015
FFVFVVFFCFGL	0.383 ± 0.047	0.321 ± 0.008	0.438 ± 0.035	0.303 ± 0.023	0.444 ± 0.0091	0.2809 ± 0.0014	0.303 ± 0.0093	0.41 ± 0.014
GFPFLCSFLLAS	0.382 ± 0.013	0.384 ± 0.0044	0.412 ± 0.0058	0.298 ± 0.04	0.472 ± 0.011	0.253 ± 0.005	0.291 ± 0.026	0.453 ± 0.005
AGMLMCLYLFFV	0.468 ± 0.027	0.562 ± 0.05	0.661 ± 0.047	0.467 ± 0.032	0.598 ± 0.022	0.428 ± 0.0066	0.449 ± 0.028	0.5673 ± 0.0029
NYVFALFYMVVA	0.254 ± 0.0054	0.196 ± 0.022	0.311 ± 0.031	0.224 ± 0.033	0.3449 ± 0.0014	0.19 ± 0.0089	0.217 ± 0.025	0.345 ± 0.03
GLCGVCLVRCVG	0.338 ± 0.019	0.3008 ± 0.00051	0.412 ± 0.024	0.275 ± 0.031	0.478 ± 0.0052	0.211 ± 0.0051	0.249 ± 0.036	0.393 ± 0.0046
FVYFLLVVCFAF	0.208 ± 0.011	0.1671 ± 0.0012	0.242 ± 0.014	0.184 ± 0.028	0.274 ± 0.0017	0.157 ± 0.0085	0.166 ± 0.021	0.249 ± 0.017
PWAHIRTVQTYV	0.437 ± 0.0069	0.673 ± 0.0069	0.716 ± 0.013	0.595 ± 0.011	0.7626 ± 0.0066	0.286 ± 0.0081	0.314 ± 0.033	0.461 ± 0.027
FLPFRVFNFSLV	0.38 ± 0.063	0.659 ± 0.031	0.713 ± 0.015	0.653 ± 0.035	0.725 ± 0.015	0.22 ± 0.011	0.229 ± 0.026	0.441 ± 0.05
FPRPLPVPLAVS	0.25711 ± 0.00013	0.153 ± 0.023	0.217 ± 0.06	0.193 ± 0.033	0.2901 ± 0.0012	0.15456 ± 3.3e-05	0.181 ± 0.0047	0.221 ± 0.005
LLLLFPSPLFIR	0.281 ± 0.05	0.126 ± 0.057	0.0999 ± 0.026	0.235 ± 0.012	0.303 ± 0.022	0.553 ± 0.024	0.216 ± 0.019	0.272 ± 0.02
RLHCFSPILCPI	0.493 ± 0.012	0.6063 ± 0.0042	0.576 ± 0.0073	0.434 ± 0.029	0.59601 ± 0.00033	0.402 ± 0.021	0.436 ± 0.017	0.579 ± 0.036
LWFLDYVFICFL	0.382 ± 0.022	0.335 ± 0.017	0.347 ± 0.025	0.33 ± 0.034	0.452 ± 0.012	0.3673 ± 0.0034	0.299 ± 0.018	0.399 ± 0.011
GFNIFFFFFFFV	0.326 ± 0.0089	0.21 ± 0.051	0.223 ± 0.035	0.202 ± 0.02	0.297 ± 0.019	0.281 ± 0.0099	0.173 ± 0.006	0.247 ± 0.021
FLFLFIFYFFCC	0.389 ± 0.083	0.269 ± 0.046	0.367 ± 0.0077	0.327 ± 0.024	0.476 ± 0.02	0.315 ± 0.0036	0.314 ± 0.032	0.401 ± 0.06
IRDGPWKRVLVV	0.348 ± 0.051	0.599 ± 0.031	0.596 ± 0.01	0.48 ± 0.028	0.642 ± 0.0055	0.125 ± 0.0086	0.157 ± 0.015	0.245 ± 0.0076
KIHILVVQIATR	0.0736 ± 0.038	0.0402 ± 0.0097	0.134 ± 0.0054	0.0541 ± 0.0098	0.1391 ± 0.00019	0.0346 ± 0.0032	0.0319 ± 0.013	0.114 ± 0.0046
GGGWCVWMVWFG	0.401 ± 0.024	0.482 ± 0.036	0.568 ± 0.0063	0.411 ± 0.03	0.595 ± 0.011	0.23 ± 0.006	0.261 ± 0.027	0.481 ± 0.036
HRHCVSSYQKVS	0.401 ± 0.054	0.662 ± 0.08	0.708 ± 0.013	0.648 ± 0.028	0.715 ± 0.0042	0.242 ± 0.0074	0.285 ± 0.027	0.556 ± 0.01
CKYCKCVVLLWS	0.434 ± 0.037	0.53 ± 0.052	0.605 ± 0.013	0.385 ± 0.037	0.6012 ± 0.00065	0.2932 ± 0.0013	0.334 ± 0.034	0.536 ± 0.01

Sequence	protein stability index (Saccharomyces cerevisiae [1])	protein stability index (Saccharomyces cerevisiae [2]; [3])	protein stability index (Saccharomyces cerevisiae [2]; [4])	protein stability index (Saccharomyces cerevisiae [2]; [5])	protein stability index (Saccharomyces cerevisiae [2]; [6])	protein stability index (Saccharomyces cerevisiae [2]; [7])	protein stability index (Saccharomyces cerevisiae [2]; [8])	protein stability index (Saccharomyces cerevisiae [2]; [9])
VGVIGWGGLGVG	0.492 ± 0.00099	0.486 ± 0.048	0.5527 ± 0.0051	0.487 ± 0.019	0.549 ± 0.015	0.4929 ± 0.0046	0.485 ± 0.014	0.542 ± 0.023
LMWVFPRVVWLY	0.0903 ± 0.014	0.123 ± 0.037	0.102 ± 0.016	0.244 ± 0.042	0.321 ± 0.022	0.0838 ± 0.0041	0.0646 ± 0.0052	0.0611 ± 0.00062
VCVLRWAVAPCR	0.356 ± 0.027	0.287 ± 0.0041	0.342 ± 0.0038	0.245 ± 0.035	0.429 ± 0.0067	0.207 ± 0.0051	0.235 ± 0.032	0.399 ± 0.013
RLGRYSIIHCLA	0.15 ± 0.0068	0.295 ± 0.023	0.459 ± 0.044	0.327 ± 0.029	0.52 ± 0.021	0.0877 ± 0.015	0.102 ± 0.028	0.0944 ± 0.058
LLTLILRIFVLN	0.225 ± 0.024	0.304 ± 0.031	0.451 ± 0.0055	0.316 ± 0.028	0.476 ± 0.028	0.144 ± 0.01	0.147 ± 0.028	0.217 ± 0.037
AFFRCKCYVGTP	0.511 ± 0.057	0.568 ± 0.011	0.584 ± 0.046	0.502 ± 0.017	0.598 ± 0.013	0.512 ± 0.013	0.495 ± 0.0099	0.561 ± 0.025
LFSPLKGILSVM	0.448 ± 0.018	0.589 ± 0.0073	0.664 ± 0.011	0.51 ± 0.032	0.691 ± 0.0074	0.2641 ± 0.00021	0.316 ± 0.027	0.5081 ± 0.0023
SVVLCRFVLRIF	0.128 ± 0.018	0.0423 ± 0.011	0.109 ± 0.055	0.136 ± 0.015	0.181 ± 0.039	0.0747 ± 0.0075	0.0735 ± 0.017	0.136 ± 0.038
CFFLLLRVSLFP	0.239 ± 0.028	0.08149 ± 0.00038	0.112 ± 0.024	0.143 ± 0.032	0.257 ± 0.0087	0.142 ± 0.0027	0.145 ± 0.025	0.218 ± 0.011
CFSLLFYTLSLL	0.351 ± 0.018	0.47 ± 0.029	0.499 ± 0.0054	0.393 ± 0.022	0.5305 ± 0.0034	0.2695 ± 0.00095	0.274 ± 0.021	0.409 ± 0.0057
GILPIYNIISRL	0.553 ± 0.28	0.9679 ± 0.0088	0.948 ± 0.019	0.842 ± 0.054	0.891 ± 0.013	0.568 ± 0.016	0.547 ± 0.1	0.84 ± 0.031
NHKTIRIQNKSI	0.302 ± 0.031	0.67783 ± 7.8e-06	0.775 ± 0.045	0.64 ± 0.034	0.699 ± 0.0092	0.146 ± 0.0041	0.143 ± 0.051	0.424 ± 0.044
MALAVRVVACGA	0.261 ± 0.0094	0.125 ± 0.032	0.1647 ± 0.0014	0.196 ± 0.026	0.281 ± 0.0065	0.157 ± 0.012	0.19 ± 0.024	0.236 ± 0.0084
WGCTGGRGRLVC	0.428 ± 0.049	0.69 ± 0.025	0.74 ± 0.013	0.643 ± 0.029	0.7405 ± 0.0052	0.254 ± 0.011	0.295 ± 0.013	0.555 ± 0.024
RVGWVVVLGCVG	0.479 ± 0.0089	0.545 ± 0.04	0.548 ± 0.014	0.401 ± 0.027	0.578 ± 0.012	0.366 ± 0.009	0.397 ± 0.015	0.55 ± 0.014
WWDCAVWVRCGG	0.471 ± 0.015	0.477 ± 0.026	0.471 ± 0.0077	0.382 ± 0.024	0.5379 ± 0.0022	0.407 ± 0.013	0.382 ± 0.019	0.516 ± 0.012
FHFLFLFSLVSV	0.416 ± 0.017	0.294 ± 0.074	0.316 ± 0.03	0.269 ± 0.038	0.412 ± 0.017	0.293 ± 0.0034	0.279 ± 0.012	0.37513 ± 0.00036
LLFLVCFFPSIS	0.454 ± 0.05	0.46 ± 0.061	0.534 ± 0.016	0.311 ± 0.045	0.549 ± 0.033	0.304 ± 0.0092	0.313 ± 0.043	0.52 ± 0.036
VFAFVVFLHFEC	0.31 ± 0.0057	0.188 ± 0.015	0.296 ± 0.048	0.237 ± 0.036	0.375 ± 0.013	0.184 ± 0.012	0.238 ± 0.029	0.375 ± 0.066

— the supplement of paper PMC10724198
